Laboratory results published in publication PMC10761944, “Modular assembly of an artificially concise biocatalytic cascade for the manufacture of phenethylisoquinoline alkaloids” (Nature Communications, 2024).

Experiments:
[1] = system: COc1cc(CC[C@@H]2NCCc3cc(O)c(O)cc32)cc(O)c1OC; experiment: initial rates by HPLC, Michaelis-Menten fit; format: biochemical, Gloriosa superba; details: SAM as methyl donor, 200 mM potassium phosphate pH 7.5, 30 °C
[2] = molecular target: T1, RnCOMT (Rattus norvegicus, UniProt P22734); experiment: conversion by HPLC; format: biochemical; details: 4 mM SAM, 10 mM MgCl2, HEPES pH 7.5, 30 °C, 2 h
T1 construct: gene Comt; codon-optimised synthetic gene, E. coli BL21(DE3), Ni-NTA purified
T1 sequence (P22734 1-264): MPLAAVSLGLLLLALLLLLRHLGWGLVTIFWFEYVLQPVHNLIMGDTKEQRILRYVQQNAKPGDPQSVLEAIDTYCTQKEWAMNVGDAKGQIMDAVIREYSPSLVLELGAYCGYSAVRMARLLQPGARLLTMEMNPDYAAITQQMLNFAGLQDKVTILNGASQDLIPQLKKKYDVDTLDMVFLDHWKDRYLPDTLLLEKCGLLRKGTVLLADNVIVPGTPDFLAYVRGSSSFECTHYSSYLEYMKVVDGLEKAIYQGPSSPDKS

[3] = molecular target: T2, TfNCS (Thalictrum flavum, UniProt C3SBV6); experiment: product by HPLC, coupled to TpCAR; format: biochemical; details: 1a formed in situ from 1 by TpCAR; co-substrate dopamine; HEPES pH 7.5, 30 °C
T2 construct: codon-optimised synthetic gene, E. coli BL21(DE3), Ni-NTA purified

[4] = molecular target: T3, CNMT (Coptis japonica, UniProt Q948P7); experiment: product titer by HPLC, coupled to RnCOMT; format: biochemical; details: SAM; (S)-1c formed in situ from 2 mM (S)-1b; HEPES pH 7.5, 30 °C, 4 h
T3 construct: codon-optimised synthetic gene, E. coli BL21(DE3), Ni-NTA purified

Compound | Km [1] [mM] | kcat [1] [s⁻¹] | further results
GsOMT1 (Gloriosa superba) | 0.63 ± 0.05 | 4.56 ± 0.24 | 
COc1cc(CC[C@@H]2NCCc3cc(O)c(O)cc32)cc(OC)c1OC [(S)-1b] |  |  | conversion by HPLC [2]: the enzymatic activity of RnCOMT towards (S)−1b was much better than that of GsOMT1
GsOMT1 (Gloriosa superba; V125Q) | 0.33 ± 0.02 | 8.65 ± 0.26 | 
COc1cc(CCC=O)cc(OC)c1OC [1a] |  |  | product by HPLC, coupled to TpCAR [3]: (S)−1b was efficiently synthesized without the accumulation of intermediate 1a
COc1cc2c(cc1O)[C@H](CCc1cc(OC)c(OC)c(OC)c1)NCC2 [(S)-1c] |  |  | product titer by HPLC, coupled to RnCOMT [4]: CNMT showed a very weak catalytic activity towards (S)−1c
